The values that follow come from paper PMC4506781.

What all share (assay): cross-linking
Experiment [1] concerns the target CA A14C/E45C in isolated HIV-1 cores (R9.A14C/E45C) (HIV-1).
For experiment [2], the target named is HIV-1 CA P207C/T216C, assembled into tubes (HIV-1).
Experiment [3] has as its target HIV-1 CA A14C/E45C, assembled into tubes (HIV-1).
The target of experiment [4] is CA P207C/T216C in isolated HIV-1 cores (R9.P207C/T216C) (HIV-1).

Take “CA A14C/E45C in isolated HIV-1 cores (R9.A14C/E45C) (natural protein)”: the stoichiometry N (commonly a count of units in the complex or per binding partner) in experiment [1] worked out at 6.
The substance “HIV-1 CA P207C/T216C, assembled into tubes (natural protein)” came in with a stoichiometry N in experiment [2] of 3.
As for “HIV-1 CA A14C/E45C, assembled into tubes (natural protein)”, in experiment [3], the stoichiometry N came to 6.
For the substance “CA P207C/T216C in isolated HIV-1 cores (R9.P207C/T216C) (natural protein)”, in experiment [4], the stoichiometry N was determined as 3.
